From US20230192830A1 come the findings set out here.

What all share (details): remark: other sources report otherwise
Assay [1] addresses iPHF, P10636. Nature of the assay: Octet BLI, antibody on biosensor, iPHF in solution.
Assay [2] deals with T1, enriched paired helical filament tau protein (ePHF) (human), P10636. Briefly: follow up analysis, method not stated.
In assay [3] the target is T1, enriched paired helical filament tau …. Nature of the assay: direct ELISA, ePHF coated.

Sequence of iPHF, P10636 (P10636 other isoform, or with tags, fused parts or gaps): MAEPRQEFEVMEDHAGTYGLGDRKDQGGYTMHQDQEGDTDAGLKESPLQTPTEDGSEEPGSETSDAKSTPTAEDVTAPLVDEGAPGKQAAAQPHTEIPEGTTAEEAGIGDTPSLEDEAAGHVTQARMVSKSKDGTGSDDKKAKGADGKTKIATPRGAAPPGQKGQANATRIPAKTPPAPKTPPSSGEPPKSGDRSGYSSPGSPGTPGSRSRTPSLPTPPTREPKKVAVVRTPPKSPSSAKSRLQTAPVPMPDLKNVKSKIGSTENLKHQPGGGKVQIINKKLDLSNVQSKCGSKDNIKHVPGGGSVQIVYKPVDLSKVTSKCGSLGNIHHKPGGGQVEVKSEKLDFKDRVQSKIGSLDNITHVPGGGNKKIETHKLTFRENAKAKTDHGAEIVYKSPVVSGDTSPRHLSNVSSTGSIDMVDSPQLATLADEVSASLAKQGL
T1 sequence (P10636 other isoform, or with tags, fused parts or gaps limits assumed): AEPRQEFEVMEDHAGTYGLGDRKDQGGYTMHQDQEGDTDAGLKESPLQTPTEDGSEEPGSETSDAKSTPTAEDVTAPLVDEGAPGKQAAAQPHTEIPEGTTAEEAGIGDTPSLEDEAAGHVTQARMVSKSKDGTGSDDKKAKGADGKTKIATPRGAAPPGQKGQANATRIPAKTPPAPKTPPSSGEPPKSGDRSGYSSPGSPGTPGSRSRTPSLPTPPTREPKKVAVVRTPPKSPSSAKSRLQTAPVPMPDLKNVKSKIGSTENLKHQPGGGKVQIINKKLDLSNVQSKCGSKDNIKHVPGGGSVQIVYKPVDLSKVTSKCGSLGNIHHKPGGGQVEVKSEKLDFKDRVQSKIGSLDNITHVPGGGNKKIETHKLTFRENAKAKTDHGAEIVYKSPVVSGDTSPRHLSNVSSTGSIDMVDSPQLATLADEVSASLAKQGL

B1: V0022 (antibody, mouse IgG1, V domains shown)
VH: QVQLQQPGTELVKPGSSVNLSCKASGFTFTRYWMHWVKERPGHGLEWIGNINPNNGGTDFNEKFKNKATLTVHKSSTTVFIQLSSLTSEDSAVYYCARGTGTGAMDYWGQGTSVTVSS
VL: DVVMTQTPLSLPVSLGDQASISCRSSQSLVHNNGITYLYWYLQKPGQSPKLLIYRVSNRFSGVPDRFGGSGSGTDFTLKISRVEAEDLGVYFCFQGTHVPRTFGGGTKLEIK
By Kd is commonly meant the equilibrium constant for the complex coming apart. In turn, B1 returned an equilibrium dissociation constant (Kd) in assay [1] of 0.3 nM. This counts as sub-nanomolar.

B2: V0024 (antibody, mouse IgG1, V domains shown)
VH: QVQLQQPGTELVKPGASVKLSCKASGYTFTRFWMHWVKQRPGQGLEWIGNINPNNGGTDNNERFKSKATLTVDRSSSTAYMQLSSLTSEDSAVYYCARGTGTGAMDYWGQGTSVTVSS
VL: DVVMTQTPLSLPVSLGDQASISCRSSQSLVHSNGNTHLYWYLQKPGQSPKLLIYRVSSRFSGVPDRFSGSGSGTDFTLKISRVEAEDLGVYFCFQGTHVPRTFGGGTKLEIK
A word on the EC50: it is the concentration at which the effect is half-maximal. Regarding B2, the selectivity for ePHF over wild type tau in assay [2] is over 100 fold. This molecule also returned an EC50 in assay [3] of 0.125 nM.

B3: V0023 (antibody, mouse IgG1, V domains shown)
VH: QVQLQQPGTELVKPGASVKLSCKASGYTFTIFWMHWVKQRPGHGLEWIGKINPNNGGGDYNEKFKSKATLTVDKSSTTAYLQLSSLTSEDSAVYYCARGTGTGAMDYWGQGTSVTVSS
VL: DVVMTQTPLSLPVSLGDHASISCRSSQSLVHSNGITHLYWYLQRPGQTPKLLIYRVSNRFSGVPDRFSGSGSGTDFTLKISSVEAEDLGVYFCFQGTHVPRTFGGGTKLEIE
Turning to B3, the dissociation constant (Kd) in assay [1] amounted to 4 nM.
